# In publication PMC4051425:
# Where two headings read alike, the source gives them in different places.
# B1: 25-bp dsRNA (dsRNA)
# RNA 1: GCUUGUCGGGAGCGCCACCCUCUGC
# RNA 2: GCAGAGGGUGGCGCUCCCGACAAGC
# B2: 25-bp dsDNA (dsDNA)
# DNA 1: GCTTGTCGGGAGCGCCACCCTCTGC
# DNA 2: GCAGAGGGTGGCGCTCCCGACAAGC
# Legend:
# [1] = target: T1, TRBP-RBD2 (second dsRBD of TRBP) (UniProt Q15633 159-227); assay: EMSA
# T1 sequence: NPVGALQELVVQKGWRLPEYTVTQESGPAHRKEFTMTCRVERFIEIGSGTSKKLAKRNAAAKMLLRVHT
# [2] = target: T1, TRBP-RBD2 (second dsRBD of TRBP); assay: EMSA; remark: listed apart in the source
Binder,binding result [1],binding result [2]
B1,binds,–
B2,–,no binding
